The target of assay [1] is T1, cynomolgus CD47 on CHO-K1 stable cell line (cynomolgus, UniProt A0A5F8AK49 19-323 (rhesus entry)).
T1 construct: whole, on cells; also called cynomolgus CD47/CHO-K1
Nature of the assay: flow cytometry on cynomolgus CD47 CHO-K1 cells.

In assay [2] the target is T2, human CD47 on cells (SHP-77 tumor cells, human red blood cells, CCRF-CEM cells, human CD47 CHO-K1 stable cell … (human, UniProt Q08722 19-323)).
T2 construct: whole, on cells; also called RBC
The assay is described as follows: flow cytometry on human RBCs.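 Further: antibody binding measured by flow cytometry as geometric mean fluorescence intensity over a range of antibody concentrations, with EC50 and maximum taken from a sigmoidal dose-response fit.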

In assay [3] the target is T2, human CD47 on cells (SHP-77 tumor …). The assay is described as follows: flow cytometry on SHP-77 cells.
Assay [4] shares this target. The assay is described as follows: flow cytometry on human RBCs; poor fitting, not accurate.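 Further: antibody binding measured by flow cytometry as geometric mean fluorescence intensity over a range of antibody concentrations, with EC50 and maximum taken from a sigmoidal dose-response fit.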
Assay [5] concerns the target T3, wild type human CD47 (Acro Biosystems, cat. no. CD7-H5227) (human, UniProt Q08722 19-139).
T3 construct: Bought protein used as SPR analyte; also called Human CD47 wt; wild-type CD47
Nature of the assay: SPR, IgG captured, CD47 in flow; exp 3.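 Further: biacore T200 SPR with antibodies taken from supernatants of transfected HEK293 cells, C33G mutein avoiding IgV homodimers for monovalent affinity, Kd derived from association and dissociation rate constants.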

The target in another assay is T4, Human CD47-C33G (human, UniProt Q08722 19-135).
T4 construct: also called CD47 mutein with C33G mutation
The assay is described as follows: SPR, IgG captured, CD47 in flow; exp 3.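 Further: biacore T200 SPR with antibodies taken from supernatants of transfected HEK293 cells, C33G mutein avoiding IgV homodimers for monovalent affinity, Kd derived from association and dissociation rate constants.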

Assay [6] deals with T2, human CD47 on cells (SHP-77 tumor …). Nature of the assay: flow cytometry on human CD47 CHO-K1 cells.

B1: 108VH5.M16 / 108VL1.M5 (antibody, human IgG4 S228P, kappa, V domains shown)
VH: EVQLVQSGAEVKKPGASVKVSCKASGYTFTHHWMHWVRQAPGQGLEWMGMIDASDGETRYAQKFQGRVTMTRDTSTSTVYMELSSLRSEDTAVYYCARLGRYYFDYWGQGTLVTVSS
VL: EIVLTQSPATLSLSPGERATLSCRASQSVSSYLAWYQQKPGQAPRLLIYGASNRATGIPARFSGSGSGTDFTLTISSLEPEDFAVYYCGESYGHLYTFGGGTKVEIKR
notes: Full-length IgG4 (S228P), kappa; also called VH5.M16 VL1.M5
Regarding B1, the EC50 amounted to 1.8 nM in assay [1], 6.9 nM in assay [3], 3.9 nM in assay [4] and 1.9 nM in assay [6]. Further, the “Fitted Maximal MFI” value in assay [2] is 45300 MFI; in assay [3] it was 44700 MFI. The Kd in assay [5] is 2.6 nM; with Human CD47-C33G, 14 nM. For the same molecule, the koff in assay [5] turned out to be 0.0019 s⁻¹; with Human CD47-C33G, 0.0041 s⁻¹. Also, the values for the kon (in assay [5]; with Human CD47-C33G) were 720000 M⁻¹ s⁻¹ and 290000 M⁻¹ s⁻¹, respectively.

These data come from patent publication US20260132197A1 (NANJING LEGEND BIOTECH, published 2026).
